Measured values taken from the DeepSol protein solubility set.

Test: soluble on expression in E. coli; label from the status in PepcDB or PDB records

Sequence	soluble on expression in E. coli
MSKVKTRFAPSPTGYLHLGNARTAIFSYLFARHNNGGFVLRIEDTDPERSKKEYEEMLIEDLKWLGIDWDEFYRQSERFDIYREYVNKLLESGHAYPCFCTPEELEKEREEARKKGIPYRYSGKCRHLTPEEVEKFKKEGKPFAIRFKVPENRTVVFEDLIKGHIAINTDDFGDFVIVRSDGSPTYNFVVVVDDALMGITHVIRGEDHIPNTPKQILIYEALGFPVPKFAHLPVILGEDRSKLSKRHGAVSVRAYREEGYMPEALFNYLCLLGWSPPEEGREIFSKEELIKIFDLKDVNDSPAVFNKEKLKWMNGVYIREVLPLDVLLERAIPFLEKAGYDTSDREYIKKVLEYTRDSFDTLSEMVDRLRPFFVDEFEIPEELWSFLDDEKAYQVLSAFLEKIREKKPETPQEVKKLAKEIQKALKVKPPQVWKPLRIALTGELEGVGIDILIAVLPKEKIEKRILRVLEKLS	soluble
PTAQQLQLTTLDGKPFDPAGLKGKWLLGVADQAACPESCARKLFITRNSHASQGKNVDRVQRVWFITDDGEVPQKVLDAYRGTLMLRARPEQLGRYLLGQDAAAPAALLGPMWVIDPLGNLMLQFPPDVDGVKVRKDISRLLYNSR	not soluble
MKFPGQRKSKHYFPVHARDPLVSQAQEAKKMSRTHIIGIDQTLVDIEAKVDDAFIEKYGLSKGHSLVIDNDKAEMLYNELKDNNMISNEFAGGTIGNTLHNYSVLADDKSTLLGVMSEDIHIGSYSYRYLCNTSSRMDLNYLQPVPGAIGRCFALISEDGERTFAISEGDMNQLRAESIPEKIFKNASALVLTAYLVRCKEGDPMPEATMKAIEYAKKYDVPVVLTMGTKFVVQDDPQYWRDFLNDHVTVVAMNEEEGEALTGATDPLEAANKTLEWVDLVLCTAGPVGLYMAGYTEDSAKRETSLPLLPGTIAEFNQFEFSRPAVKDSCENPIKVFSHISPYMGGPEKIKNTNGAGDGALSALLHDMAANHYHRNNVPNSSKHQHSFLTYSSFSQVCKYSNRVSFEVLAQHSPRLSRGLPEREDSLEEAYWER	not soluble
MAHHHHHHMPPLRGAGRGRNKTGTVPTARTNGGFKAKGSVKPRTFDEYYGEIYGARWHTLRTAMMEAPRKVALWNRFSQVPFEEATRGLSRVEPNSLIQAFQPTQTANSTEAVSTADRGINDDDEAKLQGKALAAAADDLLHRNGVIDKPPIDAFGIKAYYLLDYASAHVVEQLQVGAFDTVLDMCAAPGGKSIAVAQFLSPDGALTCNEARADRCARLRRNLQEHVPVNYVPWRTTQRDAQTWYDPGAFSRVLVDAPCSSERHLLQQSGGSPLSLREWSEETTVQLAALQRMLLQRAIETCRVGGRIVYSTCSISPLENDGVVGEVLQRTRCEVKVIKTSPAAAAAAPVALPKTATDAGESDASGAEACAPHTPTVLGEATAYGRLLLPDTCHGWGPMFLCVLEKTAEHKDVSSSSEDDDE	not soluble
MQWSKEEEAAARKKVKENSAVRVLLEEQVKYEREASKYWDTFYKIHKNKFFKDRNWLLREFPEILPVDQKPEEKARESSWDHVKTSATNRFSRMHCPTVPDEKNHYEKSSGSSEGQSKTESDFSNLDSEKHKKGPMETGLFPGSNATFRILEVGCGAGNSVFPILNTLENSPESFLYCCDFASGAVELVKSHSSYRATQCFAFVHDVCDDGLPYPFPDGILDVILLVFVLSSIHPDRTLFI	soluble
VIIGLHNPKSPTNVGAVMRAAGCYNATQVRYNGTRYARAVKFQTDTQNSHERIGLVEMDDLTAGLDSEVKIVCVELAVGATALPHFTHPEQAIYLFGPEDGSLPQEVVDQAHYVVYVPTHGCMNLAATVNVVLYDRLAKSL	not soluble
MVDNIEQQVYELVRPYAGTYLFNIKQVELTPEIDLDTDLSIDELEAEDLMNKFFEELNVERGNFRIETYFPNHPFSWHPFKKTEPVPVPDFTISMLIESAKAGKWLYD	not soluble
MGSDKIHHHHHHMIGFEELNLQPGTRLQLMRHRGRTPVQYLSTFIGMERNEYLLLRLPKAQGTFLTFYDGEKVTVRVFSGVMISSFDASVIQTIHHPLNCLCISFPHAIQVKKIRREMRIKVDIEGRLGLQDRTILPVKLTNISATGCQILVDRDIGKVDGQVVLNFNIAQLHDDETSAMTLEAKVRNVVPAGLSGGASFLAGLEFVALESNVQLLVRHYVYECLVDRRQNLV	not soluble
MTGSATRFGGSPGPVFALEKGERVEQMKLFKTYKEQVELLGQRGMQIDNSERAEKLLAQLNYYRLSGYWYPMRRFSPQNGIAQDEFVDGASFDLVVALYEFDERLRHSVFIELDRVELAIQTRLGHELGRLDPLIYLDPQRLGARASQRGKGERTVHEVWIGKYQSALKASKEDFVAHHNSKYGGTLPIWAAVEVMDWGMLSYLYGMSPNIVRKRIAEPCGLTGPQLESWLKSLNILRNYAAHHARMFNRVYDIKPKLNNDPKLTPVANRMNRVFGQLSMIQYLHHQLGLSQADRLTRLFNTYPHNPIVPLSRTGAPENWQELALWVP	not soluble
MNKEERAKRQSKIRNFSIIAHIDHGKSTLADRILEKTNALTQREMKAQLLDSMDLERERGITIKLNAIQLNYKAKDGEEYILHLIDTPGHVDFTYEVSRSLAACEGAILVVDAAQGIEAQTLANVYLALDNNLEILPVINKIDLPSADPERVRQEVEDVIGLDASEAVLASAKAGIGIEEILEQIVEKVPAPTGDSEEPLQCMIFDSLYDPYRGVIAYIRVVNGTVKVGDKVRMMATGKEFEVTEVGVFTPKTTQRDELTVGDVGFLAASIKNVGDTRVGDTITHAKRPAAEPLAGYRKLNPMVFCGLYPIDSARYNDLRDALEKLELNDSALEFEPETSQALGFGFRCGFLGLLHMEILQERIEREFKIDLITTAPSVIYKVFLTNGEDMIVDNPSNMPDPQTIDRVEEPFVKAAIMVPNDYVGAVMEICQGKRGTFIDMQYLDETRVTLTYEIPLSEIVYDFFDQLKSNTKGYASFDYELIGYKPSKLVKMDILLNSEQVDALSFIVHRDSAYDRGKVIVEKLKELIPRQQFEVPIQATIGNKVVARSTIKAMRKNVLAKCYGGDISRKRKLLDKQKEGKKRMKSVGSVEVPQEAFMAVLKMDDN	soluble
MKINIRDSTMVRPATETPITNLWNSNVDLVIPRFHTPSVYFYRPTGASNFFDPQVMKEALSKALVPFYPMAGRLKRDDDGRIEIDCNGAGVLFVVADTPSVIDDFGDFAPTLNLRQLIPEVDHSAGIHSFPLLVLQVTFFKCGGASLGVGMQHHAADGFSGLHFINTWSDMARGLDLTIPPFIDRTLLRARDPPQPAFHHVEYQPAPSMKIPLDPSKSGPENTTVSIFKLTRDQLVALKAKSKEDGNTVSYSSYEMLAGHVWRSVGKARGLPNDQETKLYIATDGRSRLRPQLPPGYFGNVIFTATPLAVAGDLLSKPTWYAAGQIHDFLVRMDDNYLRSALDYLEMQPDLSALVRGAHTYKCPNLGITSWVRLPIYDADFGWGRPIFMGPGGIPYEGLSFVLPSPTNDGSLSVAIALQSEHMKLFEKFLFEI	soluble
WYCLISHGTRPKYWFDIEVYRQGYYPRCGQLRSWIARKDGIWFTRKYHSPPGHVLDWKIQ	not soluble
MSQVLTTYETPVLPEWVDYNGHLRDAFYLLVFSYATDALMAHIGLDSQNRDASGHSLFTLECHLNFLHEVKEGARVEVRTQLLGHDRKRLHIHHALYLPGSGQALALSEQMLLHVSLDGPRSAPFEGEVLARVEALAEAHRALPVPEGVGRVIGLPPVR	not soluble
MGSDKIHHHHHHMSKSLFPFRFLLPVPVDHYENFPVASWLLPGRLREPVSAIYRFARSADDLADEGDAPPRARLQELARYHSELDRIERGEIPDDPIFGRLAAAIRAHALPLTPFRDLLSAFAQDIEKTRYASFGEVMDYCRRSANPVGRLMLHLYGDHDPRHQAYSDAICSSLQLINFLQDVAIDYAKGRIYLPQDELAAHHVSEAQIAAGDAGGLWRMMMHKQIERARKLLQAGAPLGRALDGRIGLELRVTIRGGETILRKLHADPGCVFGARPVLGKRDWIVMLARSVL	not soluble
MKYNREKLKNKVCLAIIGMPHGIKGDVLLKILSSEPQRLKTYGTLYDDRGHSYEIVMLRMQKKNAIVHFKGVEDRSAAEALRGIHLYVARDQLVDDLTEDEFYQVDLIGLRVQDCTGRILGEVSGLFNFGAGDLLEMRLNTGKTVLIPFSKAAVLEVCIASGFLVVDPVAAGLSDGGENTLEHHHHHH	soluble
MEQFRNIGIIGRLGSVQVLDTVRRLKRFLLDRHLHVILEETIAEVLPGHGLQTSSRKMLGEVCDMVIVVGGDGSLLGAARALARHNVPVLGINRGSLGFLTDIRPDELEVKCAEVLDGHYLVENRFLLQAEVRRHGEAIGQGDALNDVVLHPGKSTRMIEFEIYIDGQFVCSQKADGLIVATPTGSTAYALSAGGPIMHPKLDAIVIVPMYPHTLSGRPIVVDGNSELKIVVSKDMTIYPQVSCDGQNHFTCAPGDTITVSKKPQKLRLIHPLDHNYYEVCRTKLGWGSRLGGGGDLEHHHHHH	soluble
MTKKYLKVDVVSPLGSVFKGEADMVSLRGSAGEMGIAYGHTELLSTLPAGVVNVRKDQHTDVLYVSGGIVEVTPTRVTIMVDDMERAENLNQAEAEKARARAKEVLKNPDASKLDIEAANKRLKEADARLKALNSSNGLYYSKDD	not soluble
GMQFPSIEDLRARNTMKWTRYGQGVLPLWVAESDFSTCPAVLQAITDAVQREAFGYQPDGSLLSQATAEFYADRYGYQARPEWIFPIPDVVRGLYIAIDHFTPAQSKVIVPTPAYPPFFHLLSATQREGIFIDATGGINLHDVEKGFQAGARSILLCNPYNPLGMVFAPEWLNELCDLAHRYDARVLVDEIHAPLVFDGQHTVAAGVSDTAASVCITITAPSKAWNIAGLKCAQIIFSNPSDAEHWQQLSPVIKDGASTLGLIAAEAAYRYGTDFLNQEVAYLKNNHDFLLHEIPKRIPGAKITPMQATYLMWIDFRDTTIEGSPSEFFIEKAKVAMNDGAWFGEDGTGFCRLNFATSREVLEEAIDRMAKAVSHHT	soluble
MGSSHHHHHHGKTIFVIVPTNEEQVAFLEALAKQDELNFDWQNPPTEPGQPVVILIPSDMVEWFLEMLKAKGIPFTVYVEEGGSENLYFQGGGGGGVNPVVEFVDVGCAFGGMLFSLAAVFPATCMMGLEIRPKVVSFAQEKALALRQENAASLTQHYRNVWFEQMNVMKFGSNCFTKGQLSRLFFCYPDPHWKRKNIRRRIISPGLVQEYAYWLRHGGLVYTVSDVAELEEWMVQCLDDSPLFRRLAEAELCTPEHKQVLEIVTGASEDAQRTARKGLQKHFAVHMRI	not soluble
MTKPLNTTQAVIEWVNNTRRYATRLDDEADALLAQLTLAAADESALNAACASHGCVGLYGYAQSAKAHLLTTLCGNENGKLEIITPDRDYDYFSHINPGHAPANMAIRFTRDIFSNESGWPLRLRLISEAELVQIFIAWTSSSPVCRQVEKSIITSRLEKWQSLRQPQPVPGVTAEEVATIASFWRSCLPSARQHIDDATWQHFASLLPALDLTTRAHAWALLWGEQPEITQQWLALAHMLQQTGHAGELAAPLSLLVDHFGLPAENFLTQMALTANDTQSDVVVHPVKEGRLLNAVSLSLDSLALLTRELVLSVENNVLDNVDLLDIPVAPDSHPHPLWRAKLGWMLAHYRQQVQPDVLVICNALASRSQTSTAAHHLLEWVNATQPQHESALPGVVWAITPQDARFATQQNLDEAVQQLMGKPGVHWGTLQALDKHSMQRLVEWLSQATSAPQRQARLQALREQLRGRVRDLLPMFDDARLPVETVIRRLQAQAARHGDLLAGLLPPVQNFEALLSTRQSREEQVCGLFNDAIDLFADEPTRASASEGHETGYQAHKMWINHLRQWAHCRDNAQRLGLEPQMLNAVAEILITASYRLGLPQQLQKTMQREEVSGAQLHAIIGNFIAWLGYANIEEAQRPASRVQKGAAIFAATPRSTMLRLTKLDEQPVHAASRYVYDWLVALYTLANENAGYRHPQDVTDVDRAQLIALIA	soluble
